8 molecules from patent publication US20190046657A1 can be followed below.

The target of assay [1] is mannose-6-phosphate receptor (M6PR). Description: SPR (BIACORE T200), M6PR amine-coupled to CM5 chip, analyte 200 nM to 12.5 nM in HBS-EP. A general note: SPR reads the build-up and loss of mass on a sensor chip optically.
Assay [2] deals with mannose-6-phosphate receptor (M6PR) expressed on CCD986SK cells (human skin fibroblasts) (human). In words: cell-based or functional assay.
In assay [3] the target is mannose-6-phosphate receptor (M6PR). Description: SPR (BIACORE T200), M6PR on CM5 chip; the reference itself.
Assay [4] shares this target. In words: SPR (BIACORE T200), M6PR amine-coupled to CM5 chip, analyte 100 nM to 6.24 nM, HBS-EP pH 7.5, 1:1 Langmuir model.
The target is the same in assay [5]. In words: SPR (BIACORE T200), M6PR amine-coupled to CM5 chip, analyte 50 nM to 3.125 nM, HBS-EP pH 7.5, 1:1 Langmuir model.
The target is the same in assay [6]. Description: SPR, summary table; relative to galsulfase.
Assay [7] shares this target. In words: SPR (BIACORE T200), M6PR on CM5 chip; relative to agalsidase beta.
Assay [8] has the same target. Description: SPR, summary table; relative to agalsidase β.
For assay [9] the target is unchanged. In words: SPR (BIACORE T200), M6PR amine-coupled to CM5 chip.
The target is the same in assay [10]. In words: SPR (BIACORE T200), M6PR amine-coupled to CM5 chip, analyte 100 nM to 6.25 nM, HBS-EP pH 7.5, 1:1 Langmuir model.
Assay [11] has the same target. In words: SPR, summary table; relative to iduronidase.
Assay [12] shares this target. Description: SPR (BIACORE T200), M6PR amine-coupled to CM5 chip, analyte 200 nM to 12.5 nM, HBS-EP pH 7.5, 1:1 Langmuir model.
For assay [13] the target is unchanged. In words: SPR, summary table; relative to imiglucerase.

With “agalsidase β (from UniProt P06280 32-429) (enzyme)”, in assay [1], the Kd (in general, the concentration at which binding is half-saturated) was found to be 0.02 µM; the koff (as a rule, the rate constant with which the complex falls apart) came out at 0.00273 s⁻¹; the kon (in general, the rate constant with which the complex forms) was 135000 M⁻¹ s⁻¹. This molecule registered an intracellular uptake activity (Kuptake) in [2] of 13.7 nM. Further, in [3], the relative KD / binding affinity (% of agalsidase beta) stood at 100%, the relative ka (% of agalsidase beta) is 100% and the relative kd (% of agalsidase beta) is 100%.
In assay [4], “galsulfase (from UniProt P15848 39-533) (enzyme)” yielded a Kd of 0.00038 µM, a koff of 0.0013 s⁻¹ and a kon of 3.49e+06 M⁻¹ s⁻¹.
For the molecule “iduronidase (from UniProt P35475 26-653) (enzyme)”, in [5], the Kd turned out to be 0.00059 µM, the koff is 0.00565 s⁻¹ and the kon was determined as 1.69e+07 M⁻¹ s⁻¹.
In [4], “imiglucerase (from UniProt P04062 40-536) (enzyme)” registered a dissociation constant Kd of 0.0173 µM, a koff of 0.00387 s⁻¹ and a kon of 232000 M⁻¹ s⁻¹.
On to “long-acting galsulfase conjugate (galsulfase-polyethylene glycol linker-immunoglobulin Fc conjugate) (from UniProt P15848 39-533)”, for which, in assay [6], the Binding affinity to M6PR (vs. 1st ERT) came out at 25%. Further, in assay [4], the Kd was determined as 0.00148 µM, the off-rate (koff) is 0.00122 s⁻¹ and the kon came out at 832000 M⁻¹ s⁻¹.

B1: long-acting agalsidase β conjugate (agalsidase β-polyethylene glycol linker-immunoglobulin Fc conjugate) (protein, part only; not given: Fc and PEG linker, UniProt P06280 32-429, looked up, not shown: a dimerising Fc or GST)
chain: LDNGLARTPTMGWLHWERFMCNLDCQEEPDSCISEKLFMEMAELMVSEGWKDAGYEYLCIDDCWMAPQRDSEGRLQADPQRFPHGIRQLANYVHSKGLKLGIYADVGNKTCAGFPGSFGYYDIDAQTFADWGVDLLKFDGCYCDSLENLADGYKHMSLALNRTGRSIVYSCEWPLYMWPFQKPNYTEIRQYCNHWRNFADIDDSWKSIKSILDWTSFNQERIVDVAGPGGWNDPDMLVIGNFGLSWNQQVTQMALWAIMAAPLFMSNDLRHISPQAKALLQDKDVIAINQDPLGKQGYQLRQGDNFEVWERPLSGLAWAVAMINRQEIGGPRSYTIAVASLGKGVACNPACFITQLLPVKRKLGFYEWTSRLRSHINPTGTVLLQLENTMQMSLKDLL
modifications: N-terminus covalently linked to a 10 kDa polyethylene glycol linker (ALD-PEG-ALD), whose other end is linked to the N-terminus of one chain of the immunoglobulin Fc
In the case of B1, in [2], the Intracellular uptake (vs. 1st ERT) turned out to be 47% and the intracellular uptake activity (Kuptake) came to 29.3 nM. In addition, in [7], the relative KD / binding affinity (% of agalsidase beta) turned out to be 67.6%, the relative ka (% of agalsidase beta) came out at 70.4% and the relative kd (% of agalsidase beta) stood at 101%. The Binding affinity to M6PR (vs. 1st ERT) in assay [8] worked out at 68%. In assay [9], this molecule registered a dissociation constant (Kd) of 0.0296 µM, an off-rate (koff) of 0.00277 s⁻¹ and an on-rate (kon) of 80000 M⁻¹ s⁻¹.

B2: long-acting iduronidase conjugate (laronidase-polyethylene linker-immunoglobulin Fc conjugate) (protein, part only; not given: Fc and PEG linker, UniProt P35475 26-653, looked up, not shown: a dimerising Fc or GST)
chain: AEAPHLVHVDAARALWPLRRFWRSTGFCPPLPHSQADQYVLSWDQQLNLAYVGAVPHRGIKQVRTHWLLELVTTRGSTGRGLSYNFTHLDGYLDLLRENQLLPGFELMGSASGHFTDFEDKQQVFEWKDLVSSLARRYIGRYGLAHVSKWNFETWNEPDHHDFDNVSMTMQGFLNYYDACSEGLRAASPALRLGGPGDSFHTPPRSPLSWGLLRHCHDGTNFFTGEAGVRLDYISLHRKGARSSISILEQEKVVAQQIRQLFPKFADTPIYNDEADPLVGWSLPQPWRADVTYAAMVVKVIAQHQNLLLANTTSAFPYALLSNDNAFLSYHPHPFAQRTLTARFQVNNTRPPHVQLLRKPVLTAMGLLALLDEEQLWAEVSQAGTVLDSNHTVGVLASAHRPQGPADAWRAAVLIYASDDTRAHPNRSVAVTLRLRGVPPGPGLVYVTRYLDNGLCSPDGEWRRLGRPVFPTAEQFRRMRAAEDPVAAAPRPLPAGGRLTLRPALRLPSLLLVHVCARPEKPPGQVTRLRALPLTQGQLVLVWSDEHVGSKCLWTYEIQFSQDGKAYTPVSRKPSTFNLFVFSPDTGAVSGSYRVRALDYWARPGPFSDPVPYLEVPVPRGPPSPGNP
modifications: N-terminus covalently linked to a 10 kDa polyethylene glycol linker (ALD-PEG-ALD), whose other end is linked to the N-terminus of one chain of the immunoglobulin Fc
As to B2, in assay [10], the Kd was 0.00472 µM, the off-rate (koff) is 0.00223 s⁻¹ and the on-rate (kon) worked out at 474000 M⁻¹ s⁻¹. This molecule gave a Binding affinity to M6PR (vs. 1st ERT) in [11] of 13%.

B3: long-acting imiglucerase conjugate (imiglucerase-polyethylene glycol linker-immunoglobulin Fc conjugate) (protein, part only; not given: Fc and PEG linker, human, UniProt P04062 40-536, looked up, not shown: a dimerising Fc or GST)
chain: ARPCIPKSFGYSSVVCVCNATYCDSFDPPTFPALGTFSRYESTRSGRRMELSMGPIQANHTGTGLLLTLQPEQKFQKVKGFGGAMTDAAALNILALSPPAQNLLLKSYFSEEGIGYNIIRVPMASCDFSIRTYTYADTPDDFQLHNFSLPEEDTKLKIPLIHRALQLAQRPVSLLASPWTSPTWLKTNGAVNGKGSLKGQPGDIYHQTWARYFVKFLDAYAEHKLQFWAVTAENEPSAGLLSGYPFQCLGFTPEHQRDFIARDLGPTLANSTHHNVRLLMLDDQRLLLPHWAKVVLTDPEAAKYVHGIAVHWYLDFLAPAKATLGETHRLFPNTMLFASEACVGSKFWEQSVRLGSWDRGMQYSHSIITNLLYHVVGWTDWNLALNPEGGPNWVRNFVDSPIIVDITKDTFYKQPMFYHLGHFSKFIPEGSQRVGLVASQKNDLDAVALMHPDGSAVVVVLNRSSKDVPLTIKDPAVGFLETISPGYSIHTYLWRRQ
modifications: N-terminus covalently linked to a 10 kDa polyethylene glycol linker (ALD-PEG-ALD), whose other end is linked to the N-terminus of one chain of the immunoglobulin Fc
In [12], B3 had a Kd of 0.0796 µM, an off-rate constant (koff) of 0.0039 s⁻¹ and an on-rate constant (kon) of 49000 M⁻¹ s⁻¹. This molecule also returned a Binding affinity to M6PR (vs. 1st ERT) in assay [13] of 22%.
